Earlier results in publication PMC9796269 (British Journal of Clinical Pharmacology, 2022).

CNP‐22: endogenous C‐type natriuretic peptide form, susceptible to Neprilysin degradation
calculated half‐life (clearance in human plasma): 2.6 min
